Experimental data: patent US20240352075A1, “PACAP1-23 ANALOG GLYCOPEPTIDES AND METHODS FOR PRODUCING AND USING THE SAME” (priority 2021, published 2024)
Primed or numbered codes have the meaning given here. Where no end group is shown, it is not given here. [ ]: non-standard residue; d: D form. Glc″ = glucose, glycoside on Ser; Lac′ = lactose, glycoside on Ser; Nva = CCC[C@H](N)C(=O)O

T1: human VPAC1 (human, UniProt P32241 31-457)
T1 sequence (looked up): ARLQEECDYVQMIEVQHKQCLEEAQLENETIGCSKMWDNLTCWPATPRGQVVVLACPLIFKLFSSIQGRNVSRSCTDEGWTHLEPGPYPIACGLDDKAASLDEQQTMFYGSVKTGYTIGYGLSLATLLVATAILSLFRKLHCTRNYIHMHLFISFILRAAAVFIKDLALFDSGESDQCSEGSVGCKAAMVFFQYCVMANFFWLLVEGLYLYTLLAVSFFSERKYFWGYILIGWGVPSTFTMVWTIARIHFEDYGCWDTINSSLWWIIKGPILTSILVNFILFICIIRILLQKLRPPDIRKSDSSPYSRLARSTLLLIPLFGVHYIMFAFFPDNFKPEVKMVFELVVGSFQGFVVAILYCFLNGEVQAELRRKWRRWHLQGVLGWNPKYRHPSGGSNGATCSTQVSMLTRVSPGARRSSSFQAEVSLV

T2: human VPAC2 (human, UniProt P41587 24-438)
T2 sequence (looked up): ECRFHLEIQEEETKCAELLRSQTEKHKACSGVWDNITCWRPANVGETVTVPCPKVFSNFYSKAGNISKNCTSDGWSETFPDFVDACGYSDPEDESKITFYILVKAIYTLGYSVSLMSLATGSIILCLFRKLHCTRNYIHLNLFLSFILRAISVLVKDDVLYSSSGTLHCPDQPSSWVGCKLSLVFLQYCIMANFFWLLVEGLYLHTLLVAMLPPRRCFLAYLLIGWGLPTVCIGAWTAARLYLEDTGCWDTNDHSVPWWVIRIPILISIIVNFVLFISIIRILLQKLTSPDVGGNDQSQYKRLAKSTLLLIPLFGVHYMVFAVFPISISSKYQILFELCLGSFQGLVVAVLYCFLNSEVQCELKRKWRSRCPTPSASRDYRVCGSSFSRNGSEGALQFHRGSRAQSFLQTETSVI

T3: human PAC1 (human, UniProt P41586 21-468)
T3 sequence (looked up): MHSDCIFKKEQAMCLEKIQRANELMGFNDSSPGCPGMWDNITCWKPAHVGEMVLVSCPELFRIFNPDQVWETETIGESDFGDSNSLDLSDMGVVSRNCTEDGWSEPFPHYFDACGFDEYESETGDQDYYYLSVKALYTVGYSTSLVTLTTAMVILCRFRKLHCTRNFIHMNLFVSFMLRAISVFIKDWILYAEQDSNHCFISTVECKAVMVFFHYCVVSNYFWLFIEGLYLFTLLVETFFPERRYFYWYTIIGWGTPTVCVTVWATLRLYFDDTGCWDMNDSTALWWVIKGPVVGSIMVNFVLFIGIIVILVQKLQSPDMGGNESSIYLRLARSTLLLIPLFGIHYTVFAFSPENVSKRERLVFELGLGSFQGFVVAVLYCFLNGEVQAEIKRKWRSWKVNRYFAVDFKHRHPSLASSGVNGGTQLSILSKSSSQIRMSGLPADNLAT


How the values were obtained:
Assay in all cases: cell-based or functional assay
human VPAC1 [1] = biological target: T1, human VPAC1
human VPAC2 [2] = biological target: T2, human VPAC2
human VPAC1 [3] = biological target: T1, human VPAC1; remark: listed apart in the source
human PAC1 = biological target: T3, human PAC1
human VPAC1 [4] = biological target: T1, human VPAC1; remark: listed apart in the source
human VPAC2 [5] = biological target: T2, human VPAC2; remark: listed apart in the source
human VPAC2 [6] = biological target: T2, human VPAC2; remark: listed apart in the source

selectivity for PAC1 versus VPAC1 (cAMP potency) (human VPAC1 [1]) [fold] | selectivity for PAC1 versus VPAC2 (cAMP potency) (human VPAC2 [2]) [fold] | cAMP stimulation EC50 (human VPAC1 [3]) [nM] | cAMP stimulation EC50 (human PAC1) [nM] | cAMP stimulation EC50 (Table 1, differs from Table 3) (human VPAC1 [4]) [nM] | cAMP stimulation Emax (Table 1, differs from Table 3) (human VPAC1 [4]) [%] | cAMP stimulation Emax (Table 1, differs from Table 3) (human VPAC2 [5]) [%] | cAMP stimulation Emax (human VPAC1 [3]) [%] | cAMP stimulation Emax (human PAC1) [%] | cAMP stimulation EC50 (human VPAC2 [6]) [nM] | cAMP stimulation Emax (human VPAC2 [6]) [%] | Binder
~60 | ~900 | 37 | 0.64 |  |  |  |  |  |  |  | HSDGIFTDSYSRYRKQ[Nva]AVKKYLS(Glc″)-NH2 [CRA-DV-3023]
 |  | 38 | 7 | 35 | 124 | 190 | 95 | 181 | 321 | 115 | HSDAIFTDSYSRYRKQ[Nva]AVKKYLS(Lac′)-NH2 [CRA-TG-3026]
